These results are taken from the nanobody polyreactivity screen of Harvey et al. (2022).

The data set in a line: yeast display, Sf9 membrane polyspecificity reagent, FACS + sequencing; frameworks hold sequencing errors. The method in brief: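 Nanobodies came from a synthetic yeast display library in Saccharomyces cerevisiae BJ5465, induced with galactose for 36–48 hours and stained for 1 hour at 4 °C with 10% biotinylated, detergent-solubilized Sf9 membrane reagent. Cells were enriched on streptavidin microbeads and then FACS-sorted, with low and high (top ~1%) gates set on anti-HA fluorescence for expression and streptavidin fluorescence for reagent binding. Each polyreactivity label reflects the gate a clone came from. Genes were amplified by colony PCR, sequenced by MiSeq 2 × 250 and filtered by CDR length.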
On to “QVQLVESGGGLVQAGGSLRLSCAASGRTFWYNAMGWYRQAPGKERELVAVISSGAITYYADSVKGRFTISRDNAKNTVYLQMNSLKPEDTAVYYCNAQRRGTYYWGQGTQVTVSS”, for which the “polyreactivity (PSR sort gate)” value is “high polyreactivity”.

Consider “QVQLLESGGGLVQAGGSLRLSSAASGRIFLGYTMGWYRPAPGNERELVAAIRLSGGTTRYADSVKGRFTISRDNAKNTVYLQMYSLKPEDTAVYYCAARDRRTYSLYYWGQGSQVTVSS”, for which the “polyreactivity (PSR sort gate)” value was “high polyreactivity”.

For “QVQLVESGGGLVQAGGSLRLSCAASGSIMVRYAMGWYRQAPGKERELVAAITSGGSTYADSVKGRFTISRDNAKNTVYLQMNSLKPEDTAVYYCARDYFNREAFDYWGQGTQVTVSS”, the “polyreactivity (PSR sort gate)” value is given as “low polyreactivity”.

Take “QVQLVESGGGLVQAGGSLRLSCAASGSTFTTYAMGWYRQAPGKERELVAAITSGGTTNYADSVKGRFTISRDNAKNTVYLQMNSLKPEDTAVYYCAARNNVEYLTIYKPYSFGSDSWGQGTQVTVSS”: the “polyreactivity (PSR sort gate)” value is “low polyreactivity”.

Consider “QVQLVESGGGLVQAGGSLRLSCAASGLIFVSYAMGWYRQEPGKERELVASITDSDSSTYYADSVKGRFTISRDNAKNTVYLQMNSLKPEDTAVYSCATGGRTEIWYPTLDYWGQGTQVTVSS”, for which the “polyreactivity (PSR sort gate)” value is “low polyreactivity”.

Regarding “QVKLVESGGGLVQAGGSLRLSCAASGSTMSVNAMGWYRQAPGKERELVAAIDFDGGDTYYADSVKGRFTISRDNAKNTVYFQMNSLKPEDTAVYYCAADIGGQYDYLADDYWGQGTQVTVSS”, the “polyreactivity (PSR sort gate)” value was “low polyreactivity”.

Take “QVQLVESGGGLVQAGGSLRLSCAASGSTFSGYAMGWYRQAPGKERELVAAITRSGGSTYYADSVKGRFTISRDNAKNTVYLQMNSLKPEDTAVYYCNVYFGYWVPTSTYYWSWDDYWGQGTQVTVSS”: the “polyreactivity (PSR sort gate)” value is recorded as “low polyreactivity”.

In the case of “QVQLVESGGGLVQAGGSLRLSCAASGLIFDYYAMGWYRQAPGKERELVAAISSGGDTTYADSVKGRFTISRDNAKNTVYLQMNSLKPEDTAVYYCAADRWIPVYILGADGYDYWGQGTQVTVSS”, the “polyreactivity (PSR sort gate)” value is “low polyreactivity”.

As to “QVQVVESGGGLVQAGGSLRLSCAGSGSIFYFYAMGWSRQAPGKARELVATITSGGRTYYADSVKGRFTISRDNAKNTVYLQMISLKPEDTAVYYCNSRPVSYRYSSYIFNYWGQGTQVTVSS”, the “polyreactivity (PSR sort gate)” value is recorded as “high polyreactivity”.

Consider “QVQLVESGGGLVQAGGSLRLSCAASGFILPNYAMGWYRQAPGKERELVAASTYIGGSTYYADSVKGRFTISRDNAKHTVYLQMNSLKPEDTAVYYCAKYWLGYTKYDYWGQGTQVTVSS”, for which the “polyreactivity (PSR sort gate)” value is given as “low polyreactivity”.

In the case of “QVQLVESGGGLVQPGGSLRLSCAASGSIYTNAMGWYRQAPGKERELVAAISWSGGRTYYADSVKGRFTISRDNAKNTVYFQLNSLKPEDTAVYYCNTRGTRIASGHYYWGQGTQVTVSS”, the “polyreactivity (PSR sort gate)” value was “high polyreactivity”.

With “QVQLVESGGGLVQAGGSLRLSCAASGSTFPDYAMGWYRQAPGKERELVAAISGDSDDTYYADSVKGRFTISRDNAKNTVYLQMNSLKPEDTAVYYCAARRGRAVYSVAYDYWGQATQVTVSS”, the “polyreactivity (PSR sort gate)” value is on record as “high polyreactivity”.

With “QVQLVESGGGLVQAGGSLRLSCAASGRTFLPNAMGWYRQAPGKERELVAVITSGGSTNYADSVKGRFTISRDNAKNTVYLQMNSLKPEDTAVYYCAADWWRVEMEYWGQGTQVTVSS”, the “polyreactivity (PSR sort gate)” value is given as “low polyreactivity”.

Regarding “QVQLVESGGGLVQAGGSLRLSCAASGRTFTGNVMGWYRQAPGKERELVAAISRSGTSTYYADSVKGRFTISRDNAKNTVYLQMNSLKPEDTAVYYCAARRTAGYRSGEYDYWGQGTQVTVSS”, the “polyreactivity (PSR sort gate)” value is “high polyreactivity”.

With “QVQLVESGGGLVQAGGSLRLSCAASGGTIRVYAMRWYRQAPGKERELVAAITGRGGSTYYADSVKGRFTISRDNAKNTVYLQMNSLKPEDTAVYYCAKDPVTTYYKYDYWGQGTQVTVSS”, the “polyreactivity (PSR sort gate)” value is reported as “low polyreactivity”.

Regarding “QVQLVESGGGLVQAGGSLRLSCAASGSIFIGYAMGWYRQAPGKERELVAAITSGGSTYADSVKGRFTISRDNAKNTVYLQMNSLKPEDTAVYYCAAPRTYYSELTSPYDYWGQGTQVTVSS”, the “polyreactivity (PSR sort gate)” value is recorded as “low polyreactivity”.

Take “QVQLVESGGGLVQAGGSLRLSCAASGSIFNYYVMGWYRQAPGKERELVAGIRWNGGSTYYADSVKGRFTISRDNAKNTVYLQMNSLKPEDTAVYDCAAQAWWGYYSRGPMDYWGQGTQVTVSS”: the “polyreactivity (PSR sort gate)” value is reported as “low polyreactivity”.

“QVQLVESGGGLVQAGGSLRLSCAASGSIFLHNAMGWYRQAPGKERELVAGITSSGTSTYYADSVKGRFTISRDNEKNTVYLQMNSLKPEDTAVYYCAAYRYGSRGGYCGQGTQVTVSS”: the “polyreactivity (PSR sort gate)” value is given as “high polyreactivity”.

“QVQLVESGGGLVQAGGSLRLSCAASGIIFSIYALGWYRPAAGKERELVAAITYSGGRTYYADSVKGRFTISRDNAKNSVYLQMNSLKPEDTAVYYCAAVGYGEYYWGQGTQVTVSS”: the “polyreactivity (PSR sort gate)” value is given as “high polyreactivity”.

For the sequence “QVQLVESGGGLVQAGGSLRLSCAASGITFASYVMGWYRQAPGKERELVAAISSSGGSTYYADSVKGRFTISRDNAKNTVYLQMNSLKPEDTAVYYCKARLYYSWRSTYDYWGQGTQVTVSS”, the “polyreactivity (PSR sort gate)” value is recorded as “high polyreactivity”.

Regarding “QVQLVESGVGLVQAGVSLRLSCAASVSISTPYTMGWSRPAPGKERELVAAISWIGDTTSYADSVKGRFTISRDNAKNTVYLQMNRLKPEDTAVYYCNAEHRGYDYWGQGTQVTVSS”, the “polyreactivity (PSR sort gate)” value is on record as “low polyreactivity”.

Take “QVQLVESGGGLVQAGGSLRLSCAASGRIFYSNVMGWYRQAPGKERELVAAISGRTGGTYYADSVKGRFTISRDNAKNTVYLQMNSLKPEDTAVYYCAARVGWNKRRYDYWGQGTQVTVSS”: the “polyreactivity (PSR sort gate)” value is on record as “low polyreactivity”.

Regarding “QVQLVESGGGLVQAGGSLRLSCADSGRTLVRYTMRGYRQAPGKERDLVASISQRGGTTYYADSVKGRFTISRDNAKNTVYLQMNSLKPEDTAVYYCAAGIHGRYARDWYEYWGQGTQVTVSS”, the “polyreactivity (PSR sort gate)” value is recorded as “low polyreactivity”.

In the case of “QVQRVESGGGLVQAGGSLRLSCAASGRIFGLNAMGWYRQAPGKERELVAAIDRSGASTYYADSVKGRFTISRDNAKNTVYLQMNSLKPEDSAVYYCAARIRTSDRRYYLGQGTQVTVSS”, the “polyreactivity (PSR sort gate)” value is “high polyreactivity”.

“QVQLVESGGGLVQAGGSLRLSCAASGRIFRSNAMGWYRQAPGKERELVAAITWSGGSTYYADSVKGRFTISRDNAKNTVYLQMNSLKPEDTAVYYCAADGYTAYLPYYWFDYWGQGTQVTVSS”: the “polyreactivity (PSR sort gate)” value is “high polyreactivity”.

With “QVQLVESGGGLVQAGGSLRLSCAASGRTFQRYAMGWYRQAPGKERELVAAISFSGGSTYYADSVKGRFTISRDNAKNTVYLQMNSLKPEDTAVYYCAAYHARSGYDSWGQGTQVTVSS”, the “polyreactivity (PSR sort gate)” value is “high polyreactivity”.

Take “QVQLVESGGGLVQAGGSLRLSCAASGYIFAIYAMGCYRQAPGKERELVAAISTSGGSTYYADSVKGRFTISRDNAKNTVYLQMNSLKPDDTAVYYCARPTTYGYYYWGQGTQVTVSS”: the “polyreactivity (PSR sort gate)” value is “high polyreactivity”.

For “QVQLVESGGGLVQAGGSLRISCAASGLTFEVYAMGWYRQAPGIERELVATITYSGGITYYADSVKGRFTISRDNAKNTVYLQMNSLKPEDTAVYYRIGFGGDYDYWGQGTQVTVSS”, the “polyreactivity (PSR sort gate)” value is “low polyreactivity”.

As for “QVQLVESGGGLVQAGGSLRLSCAASGNTFEYYTMGWYRKAPGKERELVASIDWSTTSTYYADSVKGRFTISRDNAKNTVYLQMNSLKPEDTAVYYCNTVYDYYHLGLYSGFRYHYWGQGTQGTVSS”, the “polyreactivity (PSR sort gate)” value is “low polyreactivity”.

Take “QVQLVESGGGLVQAGGSLRLSCAASGSIFGYNAMGWYRQAPGKERELVAAITSSGGSTYNADSVKGRFTISRDNAKNTVYLQMNSLKPEDTAFYYCNSRDWYIVWYDYWGQGTQVTVSS”: the “polyreactivity (PSR sort gate)” value was “low polyreactivity”.

For “QVQQRESGGGLVQAGGSLSLSCAASGTIFYSRYMGWYRQAPGKEREFVASISSGGNTNYADSVKGRCTISRDNAKNTVYLQMNSLKPEVTAVYYCAVNTGLITTFPFWGQATQVTVSS”, the “polyreactivity (PSR sort gate)” value was “high polyreactivity”.

Take “QVQLVESGGGLVQAGGSLRLSCAASGFIFGYNAMGWYRQAPGKERELVAAITSRGDRTYYADSVKGRFTISRDNAKNTVYLQMNSLKPEDTAVYYCAKATRGYRSPYGSIGYYYWGLGTQVTVSS”: the “polyreactivity (PSR sort gate)” value is given as “high polyreactivity”.

Take “QDQLVESGGGLVQAGGSLRLSCAASGYTFRYAMGWNIQAPGKERELVAGITSSGGSTYYADSVKGRFTISRDNAKNTVYLQMNSLKPEDTAVYYCNADFFVWLYPHYLIFDYWGQGTQVTVSS”: the “polyreactivity (PSR sort gate)” value is recorded as “low polyreactivity”.

On to “QVQLVESGGGLVQAGGSLRLSCSASGITFTSYAMGWYRQAPGKERELVASIDSDDSTNYADSVKGRFTISLDNAKNTVYLQMNSLKPEDTAVYYCNADYLTVSWSIPEHVTVRLMYYWGQGTQVTVSS”, for which the “polyreactivity (PSR sort gate)” value is “low polyreactivity”.

With “QVQLVESGGGLVQAGGSLRLSCDASGSTFDYYAMGWYRQAPGKERELVAGIDSAGSTNYADSVKGRFTISRDNAKNTVYLQMNSLKTGRYRGLYCNVGKTITTYAFPTFDYCGQGTQVTVSS”, the “polyreactivity (PSR sort gate)” value is listed as “low polyreactivity”.

On to “QVQLVESGGGLVQAGGSLRLSSAPSGSIFWGYAMGWYRQAPGKERELVATIRNRGGSTYYADSVKGRFTISRDNAKNTVYFQMNSRKPDDTAVYYCAAVSYRQYYGWGNYWGQGSQVTVSS”, for which the “polyreactivity (PSR sort gate)” value was “low polyreactivity”.

“QVQLVQSGGGLVQAGGSLSLSCAASGSIFPGYTRGWYRQAPGKERELVAAISRRGGSTYYADSVKGRFTISRDNAKNPGYLQMNSLKPEDTAVYYCAKVPDYRFEYWGQGTQVTVSS”: the “polyreactivity (PSR sort gate)” value is “high polyreactivity”.

Consider “QVQLVESGGGLVQAGGSLRLSCAASGSIFRTNAMGWYRQAPGKERELVAAITGSGGSTYYADSVKGRFTISRDNAKNTVYLQMNSLKPVDTAVYYCAADGQLPPRGILASWEFDYWGQGTQVTVSS”, for which the “polyreactivity (PSR sort gate)” value is “low polyreactivity”.

As to “QVQLVESGGGLVQAGGSLRLSSAASGSIFGYNAIGWYRQAPGKERELVAAISYSGGRTYYADSVKGRFTISRDNAKNTVYLQMNCLKAEDTAVYYCAKVLQYRTFYTGYDYWGQGTQVTVSS”, the “polyreactivity (PSR sort gate)” value is on record as “high polyreactivity”.

As for “QVQLVESGGGLVQAGGSLRLSCAASGRIFGGYAMGWYRQAPGKERELVASITGGGTTDYADSVKGRFTISRDNAKNTVYLQMNSLKPEDTAVYYCAKRSHQFGVSRSYNTYYYWGQGTQVTVSS”, the “polyreactivity (PSR sort gate)” value is on record as “low polyreactivity”.

For the sequence “QVQLVESGGGLVQAGGSLRLSCAASGSTFGYNAMGWYRQAPGKERELVAAISRSGGRTYYADSVKGRFTISRDNAKNTVYLQMNSLKPEDTAVYFCATYYTNKVPARYYWGQGTQVTVSS”, the “polyreactivity (PSR sort gate)” value is given as “high polyreactivity”.
